The record followed here is IntAct's records for PubMed 25416956.

First the molecules themselves.
B1: Keratin, type II cytoskeletal 6A (Homo sapiens), P02538 (parent)
chain: MASTSTTIRSHSSSRRGFSANSARLPGVSRSGFSSVSVSRSRGSGGLGGACGGAGFGSRSLYGLGGSKRISIGGGSCAISGGYGSRAGGSYGFGGAGSGFGFGGGAGIGFGLGGGAGLAGGFGGPGFPVCPPGGIQEVTVNQSLLTPLNLQIDPTIQRVRAEEREQIKTLNNKFASFIDKVRFLEQQNKVLETKWTLLQEQGTKTVRQNLEPLFEQYINNLRRQLDSIVGERGRLDSELRGMQDLVEDFKNKYEDEINKRTAAENEFVTLKKDVDAAYMNKVELQAKADTLTDEINFLRALYDAELSQMQTHISDTSVVLSMDNNRNLDLDSIIAEVKAQYEEIAQRSRAEAESWYQTKYEELQVTAGRHGDDLRNTKQEIAEINRMIQRLRSEIDHVKKQCANLQAAIADAEQRGEMALKDAKNKLEGLEDALQKAKQDLARLLKEYQELMNVKLALDVEIATYRKLLEGEECRLNGEGVGQVNISVVQSTVSSGYGGASGVGSGLGLGGGSSYSYGSGLGVGGGFSSSSGRAIGGGLSSVGGGSSTIKYTTTSSSSRKSYKH
partner: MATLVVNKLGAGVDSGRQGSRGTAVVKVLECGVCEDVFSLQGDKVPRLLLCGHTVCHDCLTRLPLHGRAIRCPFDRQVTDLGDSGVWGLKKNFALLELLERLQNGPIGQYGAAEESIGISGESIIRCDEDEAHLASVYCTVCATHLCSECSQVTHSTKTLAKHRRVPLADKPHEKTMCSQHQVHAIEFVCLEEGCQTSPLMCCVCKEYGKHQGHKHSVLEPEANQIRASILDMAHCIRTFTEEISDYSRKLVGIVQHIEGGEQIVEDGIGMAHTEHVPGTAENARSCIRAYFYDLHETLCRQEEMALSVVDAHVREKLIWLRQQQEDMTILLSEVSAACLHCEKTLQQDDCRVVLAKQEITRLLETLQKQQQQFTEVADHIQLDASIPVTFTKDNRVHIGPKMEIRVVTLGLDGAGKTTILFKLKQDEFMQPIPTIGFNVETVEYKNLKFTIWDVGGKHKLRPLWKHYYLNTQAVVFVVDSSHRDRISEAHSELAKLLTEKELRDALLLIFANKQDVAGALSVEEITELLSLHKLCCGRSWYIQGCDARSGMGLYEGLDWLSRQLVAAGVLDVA
B2: Keratin, type II cytoskeletal 6A (Homo sapiens), P02538 (parent)
chain: B1 chain
partner: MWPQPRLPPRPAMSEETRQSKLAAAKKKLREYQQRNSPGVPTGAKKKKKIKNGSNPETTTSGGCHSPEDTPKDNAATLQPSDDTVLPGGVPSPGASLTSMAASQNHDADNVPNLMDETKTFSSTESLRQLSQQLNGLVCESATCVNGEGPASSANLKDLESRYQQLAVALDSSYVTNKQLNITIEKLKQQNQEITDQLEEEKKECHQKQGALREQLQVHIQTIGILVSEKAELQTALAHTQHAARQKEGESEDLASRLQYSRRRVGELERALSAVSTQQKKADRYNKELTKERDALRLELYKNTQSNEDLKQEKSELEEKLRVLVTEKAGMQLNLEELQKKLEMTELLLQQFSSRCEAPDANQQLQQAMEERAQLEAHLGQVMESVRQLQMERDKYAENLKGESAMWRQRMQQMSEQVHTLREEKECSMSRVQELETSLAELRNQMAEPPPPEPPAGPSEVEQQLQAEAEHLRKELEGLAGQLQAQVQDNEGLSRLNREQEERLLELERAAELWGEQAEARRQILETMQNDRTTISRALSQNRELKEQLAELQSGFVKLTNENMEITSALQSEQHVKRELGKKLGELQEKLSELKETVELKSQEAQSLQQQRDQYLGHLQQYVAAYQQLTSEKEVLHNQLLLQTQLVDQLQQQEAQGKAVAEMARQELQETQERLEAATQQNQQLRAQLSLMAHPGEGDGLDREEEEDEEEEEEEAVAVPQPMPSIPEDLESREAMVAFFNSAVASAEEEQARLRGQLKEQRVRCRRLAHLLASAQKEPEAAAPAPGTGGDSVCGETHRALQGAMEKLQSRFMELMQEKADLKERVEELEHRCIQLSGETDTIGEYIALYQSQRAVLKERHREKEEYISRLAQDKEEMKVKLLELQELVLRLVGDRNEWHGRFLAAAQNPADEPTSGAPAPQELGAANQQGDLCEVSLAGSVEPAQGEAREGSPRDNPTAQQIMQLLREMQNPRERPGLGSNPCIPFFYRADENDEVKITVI
B3: Chorion-specific transcription factor GCMb (Homo sapiens), O75603 (parent)
chain: MPAAAVQEAVGVCSYGMQLSWDINDPQMPQELALFDQFREWPDGYVRFIYSSDEKKAQRHLSGWAMRNTNNHNGHILKKSCLGVVVCTQACTLPDGSRLQLRPAICDKARLKQQKKACPNCHSALELIPCRGHSGYPVTNFWRLDGNAIFFQAKGVHDHPRPESKSETEARRSAIKRQMASFYQPQKKRIRESEAEENQDSSGHFSNIPPLENPEDFDIVTETSFPIPGQPCPSFPKSDVYKATCDLATFQGDKMPPFQKYSSPRIYLPRPPCSYELANPGYTNSSPYPTLYKDSTSIPNDTDWVHLNTLQCNVNSYSSYERSFDFTNKQHGWKPALGKPSLVERTNHGQFQAMATRPYYNPELPCRYLTTPPPGAPALQTVITTTTKVSYQAYQPPAMKYSDSVREVKSLSSCNYAPEDTGMSVYPEPWGPPVTVTRAASPSGPPPMKIAGDCRAIRPTVAIPHEPVSSRTDEAETWDVCLSGLGSAVSYSDRVGPFFTYNNEDF

In the first test the parent is B1. As to conditions: with tri23_human TRIM23, P36406.
With MASTSTTIRSHSSSRRGFSANSARLPGVSRSGFSSVSVSRSRGSGGLGGACGGAGFGSRSLYGLGGSKRISIGGGSCAISGGYGSRAGGSYGFGGAGSGFGFGGGAGIGFGLGGGAGLAGGFGGPGFPVCPPGGIQEVTVNQSLLTPLNLQIDPTIQRVRAEEREQIKTLNNKFASFIDKVRFLEQQNKVLETKWTLLQEQGTKTVRQNLEPLFEQYINNLRRQLDSIVGERGRLDSELRGMQDLVEDFKNKYEDEINKRTAAENEFVTLKKDVDAAYMNKVELQAKADTLTDEINFLRALYDAELSQMQTHISDTSVVLSMDNNRNLDLDSIIAEVKAQYEEIAQRSRAEAESWYQTKYEELQVTAGRHGDDLRNTKQEIAEINRMIQRLRSEIDHVKKQCANLQAAIADAEQRGEMALKDAKNKLEGLEDALQKAKQDLARLLKEYQELMNVKLALDVEIPTYRKLLEGEECRLNGEGVGQVNISVVQSTVSSGYGGASGVGSGLGLGGGSSYSYGSGLGVGGGFSSSSGRAIGGGLSSVGGGSSTIKYTTTSSSSRKSYKH [A463P], the “effect of a mutation on the interaction” value is “disrupting interaction”.

In a further test the parent is B1. The note with it: with tri23_human TRIM23, P36406. The source holds these as a separate data set.
As for MASTSTTIRSHSSSRRGFSANSARLPGVSRSGFSSVSVSRSRGSGGLGGACGGAGFGSRSLYGLGGSKRISIGGGSCAISGGYGSRAGGSYGFGGAGSGFGFGGGAGIGFGLGGGAGLAGGFGGPGFPVCPPGGIQEVTVNQSLLTPLNLQIDPTIQRVRAEEREQIKTLKNKFASFIDKVRFLEQQNKVLETKWTLLQEQGTKTVRQNLEPLFEQYINNLRRQLDSIVGERGRLDSELRGMQDLVEDFKNKYEDEINKRTAAENEFVTLKKDVDAAYMNKVELQAKADTLTDEINFLRALYDAELSQMQTHISDTSVVLSMDNNRNLDLDSIIAEVKAQYEEIAQRSRAEAESWYQTKYEELQVTAGRHGDDLRNTKQEIAEINRMIQRLRSEIDHVKKQCANLQAAIADAEQRGEMALKDAKNKLEGLEDALQKAKQDLARLLKEYQELMNVKLALDVEIATYRKLLEGEECRLNGEGVGQVNISVVQSTVSSGYGGASGVGSGLGLGGGSSYSYGSGLGVGGGFSSSSGRAIGGGLSSVGGGSSTIKYTTTSSSSRKSYKH [N171K], the “effect of a mutation on the interaction” value is given as “disrupting interaction”.

The variants in the next test derive from B2. As to conditions: with goga2_human GOLGA2, Q08379.
Turning to MASTSTTIRSHSSSRRGFSANSARLPGVSRSGFSSVSVSRSRGSGGLGGACGGAGFGSRSLYGLGGSKRISIGGGSCAISGGYGSRAGGSYGFGGAGSGFGFGGGAGIGFGLGGGAGLAGGFGGPGFPVCPPGGIQEVTVNQSLLTPLNLQIDPTIQRVRAEEREQIKTLKNKFASFIDKVRFLEQQNKVLETKWTLLQEQGTKTVRQNLEPLFEQYINNLRRQLDSIVGERGRLDSELRGMQDLVEDFKNKYEDEINKRTAAENEFVTLKKDVDAAYMNKVELQAKADTLTDEINFLRALYDAELSQMQTHISDTSVVLSMDNNRNLDLDSIIAEVKAQYEEIAQRSRAEAESWYQTKYEELQVTAGRHGDDLRNTKQEIAEINRMIQRLRSEIDHVKKQCANLQAAIADAEQRGEMALKDAKNKLEGLEDALQKAKQDLARLLKEYQELMNVKLALDVEIATYRKLLEGEECRLNGEGVGQVNISVVQSTVSSGYGGASGVGSGLGLGGGSSYSYGSGLGVGGGFSSSSGRAIGGGLSSVGGGSSTIKYTTTSSSSRKSYKH [N171K], the “effect of a mutation on the interaction” value was “disrupting interaction”.

A further test covers variants of B3. The note with it: with rbpms_human RBPMS.
On to MPAAAVQEAVGVCSYGMQLSWDINDPQMPQELALFDQFREWPDGYVRFIYSSDEKKAQRHLSSWAMRNTNNHNGHILKKSCLGVVVCTQACTLPDGSRLQLRPAICDKARLKQQKKACPNCHSALELIPCRGHSGYPVTNFWRLDGNAIFFQAKGVHDHPRPESKSETEARRSAIKRQMASFYQPQKKRIRESEAEENQDSSGHFSNIPPLENPEDFDIVTETSFPIPGQPCPSFPKSDVYKATCDLATFQGDKMPPFQKYSSPRIYLPRPPCSYELANPGYTNSSPYPTLYKDSTSIPNDTDWVHLNTLQCNVNSYSSYERSFDFTNKQHGWKPALGKPSLVERTNHGQFQAMATRPYYNPELPCRYLTTPPPGAPALQTVITTTTKVSYQAYQPPAMKYSDSVREVKSLSSCNYAPEDTGMSVYPEPWGPPVTVTRAASPSGPPPMKIAGDCRAIRPTVAIPHEPVSSRTDEAETWDVCLSGLGSAVSYSDRVGPFFTYNNEDF [G63S], for which the “effect of a mutation on the interaction” value is listed as “disrupting interaction”.
